From the nanobody polyreactivity screen of Harvey et al. (2022)

test: yeast display, Sf9 membrane polyspecificity reagent, FACS + sequencing; frameworks hold sequencing errors
Procedure, shortened: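 Nanobodies came from a synthetic yeast display library in Saccharomyces cerevisiae BJ5465, induced with galactose for 36–48 hours and stained for 1 hour at 4 °C with 10% biotinylated, detergent-solubilized Sf9 membrane reagent. Cells were enriched on streptavidin microbeads and then FACS-sorted, with low and high (top ~1%) gates set on anti-HA fluorescence for expression and streptavidin fluorescence for reagent binding. Each polyreactivity label reflects the gate a clone came from. Genes were amplified by colony PCR, sequenced by MiSeq 2 × 250 and filtered by CDR length.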

Sequence	polyreactivity (PSR sort gate)
QVQLVESGGGLVQAGGSLRLSCAASGSIFFDNAMGWYRQAPGKERELVATINSGGNTHYADSVKGRFTISRDNAKNTVYLQMNSLKPEDTAVYSCAADFRSDLVDGYNYWGQGTQVTVSS	low polyreactivity
QVQLVESGGGLVQAGRSLRLNCAASGLTFYKYAMGWYRQAPGKERELVAAISYRGGSTYYADSVKGRFTISRDNAKNTVSLQLNSLKPEVTAVYYCAAGYPYGGDYWGQGTQVTVSS	high polyreactivity
QVQLVESGGGLVQAGGSLRLSCAASGRTFGRNAMGWYRQAPGKERELVAAISSSADRTYYADSVKGRFTISRDNAKNNVYVEMNSLKPEDTAVYYCAARTFWGAYDYWGQGTQVTVSS	high polyreactivity
QVHLVESGGGLVQAGGSLRLSCAASGSTFILNAMGWYRQAPGKERELVATISSSDTSTYYADSVKGRFTISRDNAKNTVYLQMNSLKPEDTAVYYCNADYYTTSYLQRVYHYGVEYDYWGQGTQVTVSS	low polyreactivity
QVQLVESGGGIVQAGGSLRLTCAASGRIFYYYAMGWYRQAPGKEREFVAASSRSGGSTYYADSVKGRFTISRDNAKNTVYLQMNSLKPEDTAVYYCNAVRSYRGDFKYDWGQGTQVTVSS	high polyreactivity
QVQLVESGGGLVQAGGSLRLSCAASGYIFGTDAMGRYRQAPGKERELVAAISSTGRTYYADSVKGRFTISRDNAKNTVYLQMNSLKPEDTAVYYCAADVRTPSEGYDYWGQGTQVTVSS	high polyreactivity
QDQLVESGGGLVQAGGSLRLSCAAYGRTLRRYAMGWYRQAPGKERELVAAISRSGSSTYADSVKGRFTISRDNAKNTVYLQMNSLKPEDTAVYYCNAYQPRYGYWGQGTQVTVSS	high polyreactivity
QVQLVESGVGLVQAGGSLRLSCAASGSTFLTNVMGWYRQAPGKERELVAAITIGGSTNYADSVKGRFTISRDNAKNSVYLQMNSLKPEDTAVYYCATDIRRKPRYVDYEYWGQGTQVSVSS	low polyreactivity
QVQLVESGGGLVQAGGSLRLSCAASGIIFQFYAMVWYRQAPGKERELVAAISRSGGITHYADSVKGRFTISRDNAKNTVYLQMNILKPEDTAVYYCATRGTRSYFRTFYYWGQGTQVTVSS	high polyreactivity
QVQLEESGGGLVQAGGSRRLSCAASGITFPGYAMGWYRQAPGKERELVAGITYRGGRTYYADSVKGRFTISRDNAKTTVYLQMTSLNTEATAVYYCNADYWSTGGSYSFDYWGQGTQVTVSS	low polyreactivity
QVQLVESGGGLVQVGGSLRLSCAASGSNFPANAMGWYRQAPGKEWEFVAAINWSTGTTYYADSVKGRFTISRDNAKNTVYLQMNSLKPEDTAVYYCNASDQAKYDYWGQGTQVTVSS	low polyreactivity
QVQLVESGGGLVQAGGSLRLTCAASGGTISVYDMGWYRQAHGNERELVAAIRDRGVSTYYADSVKGRFTISRDTAKNTVYLQMNSLKPEDTAVYYCAAEYFDGSTYSYYYWGQGTQVTVSS	high polyreactivity
QVQLEESGGGLVQAGASLRLSCDASGSIFKKYAMGWYRPAPGKEWELVPAITRGTYYADSVKGRFTISRDNAKNTVYLQMNSLKPEDTAVYYCNREFWGRGYYRVRGEYDYWGQGTQVTVSS	low polyreactivity
QVQLVESGGGLVQPGGSLRLSCAASGIIFGYYAMGWYRQAPGKERVLDAAISWSGGSTYYADSVKGRVTISRDNAKNTVYFQMNSLKPEDTAVYYCAAVVRRKSGNDTWRYNYWGQGTQVTVSS	high polyreactivity
QVQLVESGGGLVQAGGSLRLSCAASGSIFRFYAMGWYIQAPGKERELVAGITWSGASTYYADSVKGRFTISRDNAKNTVYLQMNSLKPEDNAVYYCSAKSLIVRYDSWGQGTQVTVSS	high polyreactivity
QVQLVESGGGLVQAGGSLRLSCAASGFILRYNAMGWYRQAPGKERELVAAISYTGDRTYYADSVKGRFTISRDNAKNTVYLQMNSLKPEDTAVYYCNAGKGQRALVRIGSKLMYYWGQGTQVTVSS	high polyreactivity

Sequence	polyreactivity (PSR sort gate)
QVQLVESGGGVVQAGGILRFSCAASGRTFAPDAMGWYRQAPGKERELDAAITNGGSTTYADSVKGRFTISRDNAKNTVYLHMNSLNPEDTAVYYCAADIVSSTDYPFDYWGQGTQVNVSS	low polyreactivity
QDQLVESGGGLVQAGGSLRLSCDASGSTFLVYAMGWYRQAPGKERELVAAITQIDGSTYYADSVKGRFTISRDNAKNTVYLQMNSLKPEDTAVYYCAARYFWTYEYDYWGHGTQVTVSS	low polyreactivity
QVQLVESGGGLVQAGGSLRLSCAASGSIFLIYAMGWYRQAPGKERELVATINRGDNTYYADSVKGRFTISRDNAKNTVYLQMNSLKPEDTAVYYCAADVPWGWWDSDFSDNYYWGQGTQVTVSS	low polyreactivity
QFQLVESGGGLVQAGGSLRLSCAASGSTFSNYAMGWYRQAPGKERELVAAISSRGGSTYYADSVKGRFTISRDHAKNTVNLQMISLKPEDTAVYYCATYYVYKLYYWGQGTQVTVSS	high polyreactivity
QVQIEESGGGLVQAGGSLRLSCAASGFIFVWYAMGWYRQAPGKERELVAAISRDGDTNYADSVKGRFTISRDNAKNTVYLQMNSLKPEDTAVDYCARTYIYSGRIYNYGYWGQGTQVTVSS	high polyreactivity
QVQLVESGGGLVQAGGSLRLSCAASGFIFAGYAMGWYRQAPGKERELVAAISRRGGRTNYADSVKGRFTISRDNAKNTVYLQMNSLKPEDTAVFYCAAVQASVYYGLGRFDYWGQGTQVTVSS	high polyreactivity
QVQLVESGGGLVQAGGSLRLSCAASGSIFYSNAMGWYRQAPGKERELVAAISDGGTSTYYADSVKGRFTISRDNAKNTVYFQMNSLKPEDTAVYYCAAESTLQDWNWYKYYYWGQGTQVTVSS	low polyreactivity
QVQIVESGGGLVQAAGSLRLTFAASGIIFYIYPMGWYRPAPGKERELVASISFSGTSTYYADSVKGRFTISRDNAKNTVYIQMHSLKPEDTAVYYCAAGARWRRALAVKPYQKYGYWGQGTQVTVSS	low polyreactivity
QVQLVESGGGLVQAGGSLRLSCAASGRIFENDMGWYRQAPGKERELVATIRSDGSTNYADSVKGRFTISRDNAKNTVYLQMNSLKPEDTAVYYCAADYLGPDYFFFSNYPYDYWGQGTQVTVSS	low polyreactivity
QVQLVESGGGLVQAGGSLRLSCAASGRTFWYYAMGWYRQAPGKERELVAAITYRGTRTYADSVKGRFTISRDNAKNTVYLQMNSQKPEDTPVYYCAKDVGYRYSRTMDYWGQGTQVTVSS	high polyreactivity
QVQLVESGGGLVQAGGSLRLSCAASGSTFEPYVMGWYRQAPGKERELVAAITYSGGRTYYADSVKGRFTISRDNAKNTVYLQMNSLKPEDTAVYYCAKVDRSYGYSRYWFKYGYWGQGTQVTVSS	low polyreactivity
QVQLVESGGGLVQAGGSLRLSCAASGFIFDQYAMGWYRQAPGKERELVAAITTGGDTNYADSVKGRFTISRDNAKNTVYLQMISLKPDDSAVYYCAAKKWLTSGAFDRVFIEFDYWGQGTQVTVSS	low polyreactivity
QVQLVESGGGIVQAGGSHRLSCAASGRIFGVNAMGWYRQATGKERELVAAISVSGDSTYYADSVKGRFTISRDNAKNTVYLQMNSLKPEDTAVYYCNAGYTFVPADLTDEYYWGQGTQVTVSS	low polyreactivity
QVQLVESGGGLVQAGGSLRLSCAASGITFTSNTMGWYRKAPGKERELVAAISKSGGSTYYADSVKGRFTISRDNAKNTVYLQMNSLKPEDTAVYYCAKDSYYYRRDVTVDYWGQGTQVTVSS	low polyreactivity
QVQLVESGGGLVQAGGSLRLSCAASGFNFSYYAMGWYRQAPGKERELVAAINSGGVRTYYADSVKGRFTISRDNAKNTVYLQMNSLKPEDTAVYYCAARRHDSRYQYDYWGQGTQVTVSS	high polyreactivity
